Assays:
HLA-A*11:01 [1] = test: IEDB peptide-MHC binding, purified MHC/competitive/fluorescence; ≥ and ≤ were set here for values at or beyond the usual limits of such assays
HLA-B*08:01 [2] = test: IEDB peptide-MHC binding, purified MHC/competitive/radioactivity; filed as Kd, often an IC50 or EC50 that approximates it; ≥ and ≤ were set here for values at or beyond the usual limits of such assays
HLA-B*53:01 = test: as above
HLA-A*01:01 [3] = test: as above; conditions: source organism: Dengue virus 4 Philippines/H241/1956
HLA-B*15:01 [4] = test: as above; conditions: source organism: Dengue virus 4 Philippines/H241/1956
HLA-B*35:01 = test: as above
HLA-A*24:02 = test: IEDB peptide-MHC binding, purified MHC/competitive/fluorescence; ≥ and ≤ were set here for values at or beyond the usual limits of such assays
HLA-B*44:02 = test: IEDB peptide-MHC binding, purified MHC/direct/fluorescence; filed as Kd, often an IC50 or EC50 that approximates it; ≥ and ≤ were set here for values at or beyond the usual limits of such assays
HLA-B*18:01 = test: as above; conditions: source organism: dengue virus type 1
HLA-B*57:01 = test: IEDB peptide-MHC binding, purified MHC/competitive/radioactivity; filed as Kd, often an IC50 or EC50 that approximates it; ≥ and ≤ were set here for values at or beyond the usual limits of such assays
HLA-A*02:01 [5] = test: IEDB peptide-MHC binding, purified MHC/competitive/fluorescence; ≥ and ≤ were set here for values at or beyond the usual limits of such assays; conditions: source organism: Zaire ebolavirus
HLA-A*03:01 [6] = test: IEDB peptide-MHC binding, purified MHC/competitive/fluorescence; filed as Kd, often an IC50 or EC50 that approximates it; ≥ and ≤ were set here for values at or beyond the usual limits of such assays; conditions: source organism: Influenza A virus (A/equine/California/8560/2002(H3N8))
HLA-B*08:01 [7] = test: IEDB peptide-MHC binding, purified MHC/direct/fluorescence; filed as Kd, often an IC50 or EC50 that approximates it; ≥ and ≤ were set here for values at or beyond the usual limits of such assays
HLA-B*58:01 = test: as above
HLA-A*02:01 [8] = test: as above
HLA-B*07:02 = test: as above
HLA-B*40:01 = test: as above
HLA-A*69:01 = test: as above
HLA-A*31:01 = test: as above; conditions: source organism: Campylobacter jejuni RM1221
HLA-A*01:01 [9] = test: as above
HLA-B*15:01 [10] = test: as above
HLA-A*03:01 [11] = test: as above
HLA-B*27:05 = test: as above
HLA-A*26:01 [12] = test: IEDB peptide-MHC binding, purified MHC/competitive/fluorescence; filed as Kd, often an IC50 or EC50 that approximates it; ≥ and ≤ were set here for values at or beyond the usual limits of such assays; conditions: source organism: Bacillus anthracis str. A0488
HLA-A*11:01 [13] = test: IEDB peptide-MHC binding, purified MHC/direct/fluorescence; filed as Kd, often an IC50 or EC50 that approximates it; ≥ and ≤ were set here for values at or beyond the usual limits of such assays; conditions: source organism: Toxoplasma gondii
HLA-A*24:03 = test: as above; conditions: source organism: Toxoplasma gondii
HLA-A*26:01 [14] = test: as above; conditions: source organism: Toxoplasma gondii
HLA-B*48:01 = test: as above; conditions: source organism: Yellow fever virus
[15] = source organism: Vaccinia virus
[16] = source organism: Vaccinia virus WR
[17] = source organism: Dengue virus 4 Philippines/H241/1956
[18] = source organism: Sudan ebolavirus
[19] = source organism: Zaire ebolavirus
[20] = source organism: Vaccinia virus Copenhagen
[21] = source organism: Campylobacter jejuni RM1221
[22] = source organism: Dengue virus 1 Brazil/97-11/1997
[23] = source organism: Toxoplasma gondii

## NNIGIEYSK
HLA-A*11:01 [1]; [15]
  IC50: ≥ 173 µM

## SILSSFFSL
HLA-B*08:01 [2]; [16]
  Kd: 229 nM

## FALLAGFMAY
HLA-B*53:01; [17]
  Kd: 3150 nM
HLA-A*01:01 [3]
  Kd: 13.5 µM
HLA-B*15:01 [4]
  Kd: 6.41 nM
HLA-B*35:01; [17]
  Kd: 0.0133 µM

## VLKPSVIEE
HLA-A*11:01 [1]; [16]
  IC50: ≥ 257 µM

## NFAEGVIAF
HLA-A*24:02; [18]
  IC50: 4.18 µM

## SNTTGKLIW
HLA-A*24:02; [19]
  IC50: 9.97 µM

## DYRFRFRSV
HLA-B*08:01 [2]; [16]
  Kd: 683 nM

## KDVSYNDYF
HLA-A*24:02; [15]
  IC50: 41.4 µM

## SEHTGREIV
HLA-B*44:02; source organism: dengue virus type 1
  Kd: ≥ 20 µM
HLA-B*18:01
  Kd: 2040 nM

## MLILNFCKL
HLA-B*08:01 [2]; [20]
  Kd: 3.91 nM

## GSRAIWYMW
HLA-B*57:01; [17]
  Kd: 1.72 nM

## SFQQTNAMV
HLA-A*02:01 [5]
  IC50: 31.7 µM
HLA-A*24:02; [19]
  IC50: 18.1 µM

## IILFQRTFS
HLA-A*02:01 [5]
  IC50: ≥ 81.4 µM
HLA-A*24:02; [19]
  IC50: ≥ 294 µM

## MTIASVPTSR
HLA-A*03:01 [6]
  Kd: 1010 nM

## IYDYLRLLY
HLA-B*44:02; [21]
  Kd: ≥ 20 µM
HLA-B*08:01 [7]; source organism: Clostridium botulinum NCTC 2916
  Kd: ≥ 20 µM
HLA-B*58:01; [21]
  Kd: ≥ 20 µM
HLA-A*02:01 [8]; [21]
  Kd: ≥ 20 µM
HLA-B*07:02; [21]
  Kd: ≥ 20 µM
HLA-B*40:01; [21]
  Kd: ≥ 20 µM
HLA-A*69:01; [21]
  Kd: ≥ 20 µM
HLA-A*31:01
  Kd: ≥ 20 µM
HLA-A*01:01 [9]; [21]
  Kd: 5.13 µM
HLA-B*15:01 [10]; [21]
  Kd: ≥ 20 µM
HLA-A*03:01 [11]; [21]
  Kd: ≥ 20 µM
HLA-B*27:05; [21]
  Kd: ≥ 20 µM

## KMRPMFAVGL
HLA-B*08:01 [2]; [22]
  Kd: 4580 nM

## DNTQSEHSF
HLA-A*24:02; [19]
  IC50: 49.7 µM

## CPGDYAFHK
HLA-A*11:01 [1]; [18]
  IC50: 55.3 µM

## NFMQRIISL
HLA-B*08:01 [2]; [16]
  Kd: 1490 nM

## GTSITQKGII
HLA-B*57:01; [22]
  Kd: 9330 nM

## ICGLRQLAN
HLA-A*24:02; [19]
  IC50: 16.2 µM

## EYRFLVINR
HLA-A*11:01 [1]; [16]
  IC50: ≥ 490 µM
HLA-A*24:02; [16]
  IC50: 57.6 µM

## NTVKSFLNF
HLA-A*26:01 [12]
  Kd: 269 nM

## RWGGTCRIL
HLA-A*24:02; [18]
  IC50: 0.23 µM

## KTSLCLMMIL
HLA-B*57:01; source organism: Dengue virus 3 Sri Lanka/1266/2000
  Kd: 9.68 nM

## WCRLKFHIV
HLA-B*08:01 [2]; [20]
  Kd: 81.9 nM

## AYMDRKSFK
HLA-B*44:02; [23]
  Kd: ≥ 20 µM
HLA-B*08:01 [7]; [23]
  Kd: ≥ 20 µM
HLA-A*11:01 [13]
  Kd: ≥ 5 µM
HLA-B*58:01; [23]
  Kd: ≥ 20 µM
HLA-A*02:01 [8]; [23]
  Kd: ≥ 20 µM
HLA-A*24:03
  Kd: 2430 nM
HLA-B*07:02; [23]
  Kd: ≥ 20 µM
HLA-B*40:01; [23]
  Kd: ≥ 20 µM
HLA-A*69:01; [23]
  Kd: ≥ 20 µM
HLA-A*01:01 [9]; [23]
  Kd: ≥ 20 µM
HLA-B*15:01 [10]; [23]
  Kd: ≥ 20 µM
HLA-A*03:01 [11]; [23]
  Kd: 14.7 µM
HLA-A*26:01 [14]
  Kd: ≥ 20 µM
HLA-B*27:05; [23]
  Kd: ≥ 20 µM

## KRVVASLMR
HLA-B*48:01
  Kd: ≥ 20 µM

## HRRLRNKRL
HLA-B*08:01 [2]; [16]
  Kd: 28.4 nM

## MKMKKKTWL
HLA-B*08:01 [2]; [17]
  Kd: 62.9 nM

## WTSGASTSQE
HLA-B*57:01; [22]
  Kd: 206 nM

## FFKFSFMYI
HLA-B*08:01 [2]; [16]
  Kd: 840 nM

## MPSVVETLEQ
HLA-B*53:01; [22]
  Kd: 1200 nM
HLA-B*35:01; [22]
  Kd: 6.11 µM

## VMAVGLVSIL
HLA-B*08:01 [2]; source organism: Dengue virus 3 Martinique/1243/1999
  Kd: 154 nM
